Tests used:
[1] = Differential scanning calorimetry; type: physicochemical
Method: The influence of different parameters including pH, calcium ions, EDTA, and detergent on thermal stability of the AL protease was investigated by differential scanning calorimetry (DSC). Comparative studies were also performed with Subtilisin Carlsberg. Thermal scans of AL protease (0.3 mg protein/ml) and subtilisin (2.5 mg protein/ml in the presence of 1 mM phenyl-methanesulfonyl fluoride (PMSF); Sigma) were performed by increasing temperature from 25° C. to 95° C. at a scan rate of 1° C. per min on a VP-DSC (MicroCal, Northampton, Mass.). The thermograms were corrected by subtracting the base line, obtained from a blank scan of the no-enzyme solution, and normalized for protein concentration. The unfolding transition of the AL protease was fitted to a two-state model. The Tm (temperature at which heat capacity change is a maximum), the calorimetric (or true) enthalpy ΔHcal (peak area), and van't Hoff (or apparent) enthalpy AHVH (calculated from the shape of thermogram) were calculated using the Origin software provided by MicroCal.

[2] = Circular dichroism spectroscopy; type: physicochemical
Method: The conformational stability of the AL protease was examined by circular dichroism (CD) spectroscopy and compared with that of Subtilisin Carlsberg (bacterial protease, type VIII; Sigma Chemical Co., St. Louis, USA). The CD spectra of the proteins were obtained on a Jasco spectropolarimeter model J-720, at 25° C. in the far UV range from 195 to 250 nm at a scan rate of 10 nm/min using a sample cell path length of 0.1 cm. The ellipticity values (θ) for every nm wavelength increase were obtained in mdeg directly from the instrument and were recorded online in a computer. An average of 6 scans was calculated and the corresponding no-enzyme spectra were subtracted for each sample.

[3] = Autolytic degradation by SDS-PAGE; type: physicochemical; conditions: incubation at 50° C. up to 24 h; not shown
Method: Autolytic degradation of the protease was investigated by SDS-PAGE. The AL protease and Subtilisin Carlsberg were individually incubated in 10 mM Tris-HCl buffer 8 for 24 h at 50° C. Electrophoresis of the enzyme samples taken at different time intervals was performed according to the method of Laemmli, on 12% polyacrylamide gel using a Mini Protean II equipment (Bio-Rad, Richmond, Calif.).

[4] = molecular target: T1, N-succinyl-Leu-Tyr-7-amino-4-methyl coumarin
T1 chain: LY

[5] = molecular target: T2, N-succinyl-Ala-Ala-Pro-Leu-p-nitroanilide
T2 chain: AAPL

[6] = molecular target: T3, N-succinyl-Phe-Leu-Phe thiobenzyl ester
T3 chain: FLF

[7] = molecular target: T4, N-succinyl-Ala-Ala-Phe-7-amino-4-methyl coumarin
T4 chain: AAF

[8] = molecular target: T5, N-succinyl-Leu-Leu-Val-Tyr-7-amino-4-methyl coumarin
T5 chain: LLVY

[9] = molecular target: T6, N-succinyl-Ala-Ala-Pro-Phe-p-nitroanilide
T6 chain: AAPF

[10] = substrate: CCCC(=O)Oc1ccc([N+](=O)[O-])cc1; experiment: Assay with synthetic peptide, pNA, AMC, NNap and ester substrates (kinetic parameters); type: biochemical, Nesterenkonia sp. AL; conditions: other: substrate marked b (footnote not given), 50 mM Tris-HCl buffer, pH 9
[11] = 0.1% (w/v) SDS vs untreated, pH 10.0
[12] = untreated, 10 mM glycine-NaOH buffer, pH 10.0 (subtilisin with 1 mM PMSF)
[13] = untreated, 10 mM glycine-NaOH buffer, pH 10.0 (subtilisin with 1 mM PMSF), listed as Subtilisin

B1: Subtilisin Carlsberg: bacterial protease, type VIII; Sigma; one of the first commercial alkaline proteases (protein, UniProt P00780 106-379, looked up)
Subtilisin Carlsberg: AQTVPYGIPLIKADKVQAQGFKGANVKVAVLDTGIQASHPDLNVVGGASFVAGEAYNTDGNGHGTHVAGTVAALDNTTGVLGVAPSVSLYAVKVLNSSGSGSYSGIVSGIEWATTNGMDVINMSLGGASGSTAMKQAVDNAYAKGVVVVAAAGNSGSSGNTNTIGYPAKYDSVIAVGAVDSNSNRASFSSVGAELEVMAPGAGVYSTYPTNTYATLNGTSMASPHVAGAAALILSKHPNLSASQVRNRLSSTATYLGSSFYYGKGLINVEAAAQ
**Q.** For B1, which “Tm on addition of Ca^2+” value ([1]; 1 mM PMSF present, pH 10.0) is on record?
**A.** remained unchanged

**Q.** And the “Lowering of Tm” value ([1]; 10 mM EDTA, 1 mM PMSF present)?
**A.** 10 °C

**Q.** What about the ΔHcal ([1]; 10 mM EDTA, 1 mM PMSF present) of the same molecule?
**A.** 152 kcal/mol

**Q.** What about the “Decrease in Tm” value [1, 11] of the same molecule?
**A.** 13 °C

**Q.** And the “Decrease in ΔHcal” value [1, 11]?
**A.** 59 kcal/mol

**Q.** What about the “Further lowering in Tm” value ([1]; 0.2% SDS vs 0.1% SDS, pH 10.0) of the same molecule?
**A.** 3 °C

**Q.** What about the “Further lowering in ΔHcal” value ([1]; 0.2% SDS vs 0.1% SDS, pH 10.0) of the same molecule?
**A.** 41 kcal/mol

**Q.** And the Tm ([1]; +0.1% SDS, pH 10.0)?
**A.** 54.5 ± 0.02 °C

**Q.** What about the ΔHcal ([1]; +0.1% SDS, pH 10.0) of the same molecule?
**A.** 144 ± 0.5 kcal/mol

**Q.** And the Tm ([1]; +0.2% SDS, pH 10.0)?
**A.** 51.1 ± 0.01 °C

**Q.** What about the ΔHcal ([1]; +0.2% SDS, pH 10.0) of the same molecule?
**A.** 103 ± 0.2 kcal/mol

**Q.** And the Tm [1, 12]?
**A.** 67.3 °C

**Q.** And the ΔHcal [1, 12]?
**A.** 203 kcal/mol

**Q.** And the Tm [1, 13]?
**A.** 67.3 ± 0.02 °C

**Q.** And the ΔHcal [1, 13]?
**A.** 203 ± 0.9 kcal/mol

**Q.** What about the “Secondary structure in the presence of SDS” value ([2]; 0.1-1% (w/v) SDS, data not shown) of the same molecule?
**A.** complete loss of secondary structure

**Q.** What about the “Secondary structure after incubation” value ([2]; 24 h at 50° C., 10 mM glycine-NaOH buffer, pH 10.0) of the same molecule?
**A.** substantial loss of structure

**Q.** What about the “Degradation on gel electrophoresis” value [3] of the same molecule?
**A.** considerable degradation

B2: AL protease (alkaline protease from Nesterenkonia sp. nov. strain AL, DSM 15380) (protein)
chain: QNPADSPHIGKVFFSTNQGDFVCSANIVASANQSTVATAGHCLHDGNGGQFARNFVFAPAYDYGESEHGVWAAEELVTSAEWANRGDFEHDYAFAVLETKGGTTVQQQVGTASPIAFNQPRGQYYSAYGYPAAAPFNGQELHSCHGTATNDPMGSSTQGIPCNMTGGSSGGPWFLGQGTGGAQNSVNSYGYTFLPDVMFGPYFGSGAQQNYNYAST
**Q.** Which results are given for B2?
**A.** specific activity toward synthetic substrate [4]: only able of hydrolysing those substrates at a very low rate when high substrate concentration (10 mM) was used; between 0.002 to 0.008 U/mg; Km [5]: 9300 µM; kcat [5]: 6650 s⁻¹; kcat/Km [5]: 715000 M⁻¹ s⁻¹; specific activity toward synthetic substrate [6]: only able of hydrolysing those substrates at a very low rate when high substrate concentration (10 mM) was used; between 0.002 to 0.008 U/mg; specific activity toward synthetic substrate [7]: only able of hydrolysing those substrates at a very low rate when high substrate concentration (10 mM) was used; between 0.002 to 0.008 U/mg; Km [8]: 15 µM; kcat [8]: 51.7 s⁻¹; kcat/Km [8]: 3.45e+06 M⁻¹ s⁻¹; Km [9]: 2970 µM; kcat [9]: 4390 s⁻¹; kcat/Km [9]: 1.48e+06 M⁻¹ s⁻¹; Km [10]: 1050 µM; kcat [10]: 63.7 s⁻¹; kcat/Km [10]: 60800 M⁻¹ s⁻¹
